Data as given in US20210108188A1.

Molecular target: APOBEC3B with C-terminal 3xHA tag (A3Bi-3xHA) (human) (UniProt Q9UH17)
Test: cell-based or functional assay

- eGFP-positive 293T cells 72 hours post-transfection (chromosomal eGFP Leu202 reporter): 1.5%
- episomal eGFP Leu202 reporter editing frequency against the BFP-Cas9n/gRNA background: > 2 fold
Substance: hnRNPUL1-Cas9n-UGI-NLS (heterogeneous nuclear ribonucleoprotein U-like fused to the N-terminal end of Cas9 nickase, in the BE3 vector in place of APOBEC1) (from UniProt Q9BUJ2 1-856; Q99ZW2 2-1368; P14739 2-84)
